Here are results for 72 sequences from the supplement of paper PMC10567573.

This data set is described as follows: protein stability index of a GFP-peptide fusion (GPS, HEK-293T) (PSI 1-6); higher = more stable.
The mark [1] stands for this setting: treatment: DMSO, c terminus: a fixed tail appended.
[2] abbreviates: treatment: MLN4924 1 uM, 8 h, c terminus: a fixed tail appended.

± gives the standard deviation.
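Note: 24-mer peptide tiles fused after GFP, lentivirally expressed, FACS-sorted into six equal bins by GFP/DsRed ratio, decoded by Illumina sequencing, PSI is the read-weighted mean bin number.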

KRRQLEDERRQLQHLKSKALRERW [PALM]: the protein stability index by setting is: under setting [1], 3.93 ± 0.3; under setting [2], 4.22 ± 0.57.

ARYAQQKHRIRRVLIVDWDVHHGQ [HDAC6]: the protein stability index was determined as 2.33 ± 0.19 under setting [1] and 2.31 ± 0.42 under setting [2]. As to VMRMLGQTPTKEELDAIIEEVDED [TNNC2], the protein stability index was 5.41 ± 0.28 under setting [1] and 5.34 ± 0.27 under setting [2]. Consider FAEKGELRKSIFSESRKPTVSIME [TRIM29], for which the protein stability index under setting [1] came out at 2.37 ± 0.6 and the protein stability index under setting [2] turned out to be 3.09 ± 0.59. In the case of LLEQSLEEFAQAESKDQGKTLALA [ALDH8A1], the protein stability index by setting is: under setting [1], 4.68 ± 0.33; under setting [2], 4.68 ± 0.14. In the case of FLVAEWNEPSINFYKRRGASDLSS [SAT1], the protein stability index is, setting by setting: under setting [1], 2.32 ± 0.28; under setting [2], 2.43 ± 0.45.

Regarding IYRDSYPRNPTVRWGYVAMKFAQV [SOAT1], the protein stability index under setting [1] turned out to be 2.79 ± 0.47 and the protein stability index under setting [2] worked out at 2.67 ± 0.53. For SKVLSLQDLCCRTIVSCTPVHLVD [RAB40A], the protein stability index is 3.08 ± 0.27 under setting [1] and 2.98 ± 0.31 under setting [2]. VTKSPEKRSSLPRPSSILPPRRGV [MAP2]: the protein stability index amounted to 4.58 ± 0.16 under setting [1] and 4.72 ± 0.19 under setting [2].

As for YAVEASTMAQHAEVLVKSNNLTDR [CARM1], the protein stability index under setting [1] was 4.16 ± 0.14 and the protein stability index under setting [2] turned out to be 4.64 ± 0.34.

In the case of DTKGKPTSRTQVYKPPALKKSNSP [ZC2HC1A], the protein stability index turned out to be 4.89 ± 0.22 under setting [1] and 4.94 ± 0.18 under setting [2]. In the case of HYEFNLSRMKFRGNGALSNISDLP [LCOR], the protein stability index under setting [1] stood at 2.7 ± 0.18 and the protein stability index under setting [2] was found to be 2.76 ± 0.23.

On to FEPRLLVQSIELQRPRFITSGGSN [VPS39], for which the protein stability index by setting is: under setting [1], 2.88 ± 0.3; under setting [2], 2.9 ± 0.21. For DTRSGFWYVCRTQGVEGDHCVTSD [TRIM35], the protein stability index reads like this: under setting [1], 2.89 ± 0.31; under setting [2], 3.08 ± 0.34. For YTVLGDTLIDGGEHYWEVRYEPDS [FSD1], the protein stability index reads like this: under setting [1], 3.02 ± 0.2; under setting [2], 2.97 ± 0.34. CEMEQQSQEYQILLDVKTRLEQEI [KRT16]: the protein stability index by setting is: under setting [1], 4.1 ± 0.39; under setting [2], 4.11 ± 0.37. As to SRFVETLVVADDKMAAFHGAGLKR [ADAMTS4], the protein stability index turned out to be 3.46 ± 0.089 under setting [1] and 4.26 ± 0.11 under setting [2].

Regarding GYQMLGNVVTIGLAFFPFLHRLFR [PHTF1], the protein stability index runs as follows: under setting [1], 3.71 ± 0.23; under setting [2], 3.68 ± 0.34. Take ILIIRFEMPYNIWCDGCKNHIGMG [YJU2B]: the protein stability index under setting [1] came to 3.24 ± 0.36 and the protein stability index under setting [2] is 2.96 ± 0.71. As for ALDSADLPPPSALKKGSKEKQADF [NFE2L1], the protein stability index under setting [1] was 5.33 ± 0.2 and the protein stability index under setting [2] turned out to be 5.39 ± 0.21.

Turning to RRKDVCQAIDHGCEHICVNSDDSY [MATN2], the protein stability index reads like this: under setting [1], 4.34 ± 0.22; under setting [2], 4.53 ± 0.33. Taken in the same sequence, the figures for GFSPIIGRFCGQQNPPVIKSSGRF [NETO1] were 2.42 ± 0.29 and 2.52 ± 0.75. Taken in the same sequence, the figures for QTMAGSSPNTPQPVPEQSALCQGL [FAM104A] were 4.75 ± 0.19 and 4.84 ± 0.17.

For SLTLEDVAVDFTWEEWQFLSPAQK [ZNF649], the protein stability index amounted to 3.83 ± 0.11 under setting [1] and 3.95 ± 0.12 under setting [2]. For the sequence WRFVLQRLVFLAAFVVYLETETLV [TSN], the protein stability index was determined as 2.68 ± 0.54 under setting [1] and 3.66 ± 0.17 under setting [2]. For the sequence GIQPGQEPPVTMIFMGYQNVEDEA [PALM], the protein stability index runs as follows: under setting [1], 3.94 ± 0.35; under setting [2], 4.02 ± 0.24. Consider TIQGVPLSSYISINSDTGVLYALR [PCDHGA10], for which the protein stability index runs as follows: under setting [1], 2.19 ± 0.096; under setting [2], 2.14 ± 0.17. On to NSQNEVNGWTCLHWACKRNHGQVV [ANKRD40], for which the protein stability index reads like this: under setting [1], 2.57 ± 0.24; under setting [2], 2.65 ± 0.24. For the sequence MALEPNTTFLRKSLKAALKHLGP [FANCE], the protein stability index runs as follows: (treatment: DMSO, c terminus: native) 2.48 ± 0.25; (treatment: MLN4924 1 uM, 8 h, c terminus: native) 2.33 ± 0.17. In turn, KSRLVQLPPVAVRSLQDLARIAIR [PCMTD2] gave a protein stability index under setting [1] of 3.52 ± 0.19 and a protein stability index under setting [2] of 3.7 ± 0.073. For LRAVRQRSEFTLMAKRIGKDLSNT [STX5], in that order: 2.64 ± 0.23 and 2.78 ± 0.37. PYKKPYMETSPSEEDSFYRSSYPQ [TBX5] came in with a protein stability index under setting [1] of 3.91 ± 0.47 and a protein stability index under setting [2] of 3.65 ± 0.41. Regarding PNGLEAAYEFADRDEVRFFKGNKY [MMP1], the protein stability index runs as follows: under setting [1], 3.74 ± 0.44; under setting [2], 3.83 ± 0.3.

In turn, TARFQRNHRLISEILSESVVPDVR [SMARCE1] registered a protein stability index under setting [2] of 3.23 ± 0.11.

DQEPLLSIDLGTAHSAAVTASGDC [NEK8]: the protein stability index under setting [1] is 5.07 ± 0.32 and the protein stability index under setting [2] was determined as 5.17 ± 0.26.

For LEELGTLNVFQTVSRMRTQRAFSI [PTPN9], the protein stability index runs as follows: under setting [1], 2.48 ± 0.12; under setting [2], 2.23 ± 0.17. Consider EVFRFVQSCARAVVPSYIPLVKKH [CPOX], for which the protein stability index came out at 2.12 ± 0.21 under setting [1] and 2.37 ± 0.33 under setting [2].

The sequence HMILENCSISKMEEEAGQTSIEPS [ZER1] had a protein stability index under setting [1] of 5.14 ± 0.13 and a protein stability index under setting [2] of 5.2 ± 0.18. In the case of GELPNHPKPAGGAIPTKKSLPSPS [FBF1], the protein stability index stood at 5.2 ± 0.25 under setting [1] and 5.25 ± 0.16 under setting [2]. For WEISDDYPSLQAMGWFNNEVGSMK [CRYBA1], in that order: 3.19 ± 0.24 and 3.42 ± 0.38. Consider RRERELERRELAVEQGERALERRR [ZBED3], for which the protein stability index under setting [1] was found to be 5.03 ± 0.44 and the protein stability index under setting [2] was 5.18 ± 0.63.

As for RAGGWVSGEEFYMLTRRVLQLETV [PKD2L1], the protein stability index worked out at 1.98 ± 0.14 under setting [1] and 2.5 ± 0.35 under setting [2]. Take LQFTILLSLIGVRVDVDTYLTSQL [NFE2L1]: the protein stability index under setting [1] came to 2.97 ± 0.47 and the protein stability index under setting [2] was determined as 3.13 ± 0.27. Taken in the same sequence, the figures for LKNKKGAKQQKFIKAVTHQVKFGQ [ZC3H15] were 3.14 ± 0.57 and 3.25 ± 0.39. Regarding AAKQNHVTADDFVQTSVIGSNGYI [EHMT1], the protein stability index is, setting by setting: under setting [1], 3.56 ± 0.17; under setting [2], 3.68 ± 0.1. For PMVNHAEASRLNIERMKQIYQQLS [CRY1], the protein stability index by setting is: under setting [1], 2.81 ± 0.34; under setting [2], 2.77 ± 0.25.

On to KPVGRQACDLQPCPTEPPDDSCQD [ADAMTSL2], for which the protein stability index by setting is: under setting [1], 5.46 ± 0.34; under setting [2], 5.76 ± 0.075.

As for GQRGNTESKTDGDDTETVPSEQSH [TCF25], the protein stability index is, setting by setting: under setting [1], 5.58 ± 0.21; under setting [2], 5.54 ± 0.23. For the sequence LYSQLLQAYKWSNKLQYHAGLASG [MED27], the protein stability index reads like this: under setting [1], 3.28 ± 0.55; under setting [2], 2.67 ± 0.71. Take QQPGQDALAVKAGHGYDSKKQQEL [ZBED1]: the protein stability index is, setting by setting: under setting [1], 5.35 ± 0.22; under setting [2], 5.21 ± 0.19. With FFIYGQVLYTDKTYAMGHLIQRKK [TNFSF13B], the protein stability index came to 2.4 ± 1 under setting [1] and 2.12 ± 0.53 under setting [2]. For SQNSFLVQEVMEEEWNALQSVENC [RPAIN], in that order: 4.53 ± 0.29 and 4.52 ± 0.32. For LGAMMLLESPIDPQPLSFKEPPLL [APMAP], the protein stability index is, setting by setting: under setting [1], 2.41 ± 0.11; under setting [2], 2.5 ± 0.45.

For the sequence TIKPRRVEPVCSGLQAQILHCYRD [CHCHD6], the protein stability index was 2.98 ± 0.051 under setting [1] and 2.98 ± 0.21 under setting [2]. As to LDQLLDMPAAGLAVQLRHAWNPED [SPSB4], the protein stability index was found to be 3.44 ± 0.28 under setting [1] and 3.68 ± 0.16 under setting [2]. For HAASDPSSSSGRLSEPDPSHTLEE [SMOC2], the protein stability index amounted to 5.31 ± 0.29 under setting [1] and 5.43 ± 0.15 under setting [2].

On to FFSVIFMTVGILSNSLAIAILMKA [PTGFR], for which the protein stability index was 3.12 ± 0.26 under setting [1] and 2.75 ± 0.5 under setting [2]. Consider SSREVFTSSSSSSSRQTRPILKEQ [KRT16], for which the protein stability index by setting is: under setting [1], 4.67 ± 0.11; under setting [2], 4.7 ± 0.3. For the sequence QLFSQIGPCKNCKMIMDTAGNDPY [TIA1], the protein stability index stood at 2.32 ± 0.1 under setting [1] and 2.45 ± 0.28 under setting [2].

LRYTLWIPLYPLGCLAEAVSVIQS [HACD3] gave a protein stability index under setting [1] of 3.08 ± 0.49 and a protein stability index under setting [2] of 3.11 ± 0.37. On to MESKEKRAVNSLSMENANQENEEK [BEX1], for which the protein stability index reads like this: under setting [1], 5.5 ± 0.25; under setting [2], 5.52 ± 0.23. QFILRVSPDLEWHAACLKCAECSQ [ISL2]: the protein stability index is, setting by setting: under setting [1], 2.16 ± 0.34; under setting [2], 2.19 ± 0.34.

Turning to QLFFFHLFVGVDCFLLTAMAYDQF [OR3A1], the protein stability index is 3.13 ± 0.23 under setting [1] and 3.41 ± 0.16 under setting [2]. As for ADPLQLNKALSIILHLICLLEKVP [FEM1C], the protein stability index by setting is: under setting [1], 3 ± 0.24; under setting [2], 3.16 ± 0.9. For the sequence PIFMRKDTKMSFQWRIRNLPYPKD [DPCD], the protein stability index under setting [1] stood at 2.27 ± 0.27 and the protein stability index under setting [2] was 2.22 ± 0.069. As for TIVFLDKEVFASRISNPSDDNSCE [PCMTD2], the protein stability index reads like this: under setting [1], 3.8 ± 0.4; under setting [2], 3.83 ± 0.21. KVVQSLLNHGASVNNTTLTNSTPL [FEM1C]: the protein stability index is 2.77 ± 0.21 under setting [1] and 2.83 ± 0.24 under setting [2]. For LNPSKLMEKEINGSKVTCRGLLEY [ATL3], in that order: 2.92 ± 0.29 and 2.96 ± 0.2. Turning to FLFVLARVPAGIFKHTLSISRALL [MFSD9], the protein stability index by setting is: under setting [1], 3.29 ± 0.23; under setting [2], 2.81 ± 0.11. In the case of SLGELCHPVPLSFEPVKSFFKGLV [TRIM14], the protein stability index runs as follows: under setting [1], 2.47 ± 0.7; under setting [2], 1.89 ± 0.17.

WYFWGETFQNSVFVATFLRYAVVL [SCD]: the protein stability index came to 3.37 ± 0.33 under setting [1] and 3.36 ± 0.85 under setting [2]. Taken in the same sequence, the figures for HAQTFVALCATDVKFISNPPSMVA [CCND1] were 2.11 ± 0.29 and 2.08 ± 0.46.
